The EC50 is the concentration that produces a half-maximal response.

We go through six molecules from patent US20250368734A1 (ANTENGENE BIOLOGICS, published 2025).

To fix the notation:
T1: mouse GPRC5D (mouse, UniProt Q9JIL6 1-344)
T1 construct: whole, on cells; HEK293T-mGPRC5D cells; also called mGPRC5D; murine GPRC5D
T1 sequence (looked up): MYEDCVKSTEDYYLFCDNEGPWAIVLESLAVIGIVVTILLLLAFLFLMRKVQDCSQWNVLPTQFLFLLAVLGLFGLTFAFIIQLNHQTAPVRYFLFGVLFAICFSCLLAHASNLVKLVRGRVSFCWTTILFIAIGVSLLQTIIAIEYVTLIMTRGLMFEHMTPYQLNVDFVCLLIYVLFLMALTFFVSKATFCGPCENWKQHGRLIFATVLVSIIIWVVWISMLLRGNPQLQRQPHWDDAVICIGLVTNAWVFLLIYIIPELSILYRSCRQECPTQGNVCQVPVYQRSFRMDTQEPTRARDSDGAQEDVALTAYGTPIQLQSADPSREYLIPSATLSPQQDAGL

B1: ch90G6H3 (antibody, V domains shown)
VH: QAYLQQSGAELVRSGASVKMSCKASGYTFTSYIMHWVKQTPGQGLEWIGYIYPGNGGTNYNQKFKDKATLSADTSSSTAYMQINSLTSEDSAVYFCARWGLRQGFAYWGQGTLVSVSA
VL: DIVMTQSQKFMSTSVGDRVSVTCKASQNVGGNVAWYQQKPGQSPKALIYSTSYRNSGVPDRFTGSGSGTDFTLTISNVQSEDLAEYFCQQYNSYPFTFGSGTKLEIR
B2: ch87A3G8 (antibody, V domains shown)
VH: QVQLKESGPGLVAPSQSLSITCTVSGFSLSSYSVYWVRQPPGKGLEWLGVIWAGGSTNYNSALMSRLSINKDKSKSQVFLKMNSLQTDDSAIYYCAMRWLPRGLDFWGQGTSVTVSS
VL: DIVMTQSHKFMSTSVGDRVSITCKASQDVGTAVAWYQQKPGQSPKLLIYWASTRHTGVPDRFTGSGSGTDFTLTISNVQSEDLADYFCQQYSTYYTFGGGTKLEIK
B3: ch98A3A8 (antibody, V domains shown)
VH: EVQLQQSGPELVKPGASVKMSCKASGYTFTYYVTHWVRQKPGQGLEWIGYINPYNDGTMFNEKFKGKATLTSDKSSSTAYMEFSSLTSEDSAVFYCARGGVRRYFDVWGAGTTVTVSS
VL: DIQMTQSPSSLSASLGERVSLTCRASQDIGSNLNWLQQKPDGTIKRLIYATSSLDSGVPKRFSGSRSGSDYSLTINSLESEDFVDYYCLQYASFPYTFGGGTKLEIK
B4: ch96C9E7 (antibody, V domains shown)
VH: EVQLQQSGPELVKPGASVKMSCKASGYTFTYYILHWVKQKPGQGLEWIGYFNPYNDGNKFNERFRGKATLTSDKSSSTAYMELNSLTSEDSAVYFCARGGVRRYFDVWGAGTTVTVSS
VL: B3 VL with K39E, Y49S, S52F, N76S, D85N
B5: ch26E2H6 (antibody, V domains shown)
VH: EVQLVESGGDLVKPGGSLKLSCAASGFTFSSYGMSWVRQTPDKRLEWVATISSGGSYTYYPDSVKGRFTISRDNAKNTLYLQMSSLKSEDTAMYYCARHATDYWGQGTTLTVSS
VL: QIVLTQSPAIMSASPGEKVTMTCSASSSVSYMHWYQQKSGTSPKRWIYDTSKLASGVPARFSGSGSGTSYSLTISSMEAEDAATYYCQQWSSNPLTFGAGTKLELK
B6: ch89F11E3 (antibody, V domains shown)
VH: QVQLQQSGAELARPGASVKMSCKASGYTFTSSTIHWVKQRPGQGLAWIGYIVPSTGYTNYNQKFKDKATLTADKSSSTAYMQLTSLTSEDSAVYYCARSDGYPFGYSMAYWGQGTSVTVSS
VL: DIQMNQSPSSLSASLGDTITITCHASQNINVWLSWYHQKPGNIPKLLIYKASNLHTGVPSRFSGSGSGTGFTLTISRLQPEDIATYYCQQGQSYPFTFGSGTKLEIK

Residue numbers refer to the chain shown, from its start.

For one assay, the target named is T1, mouse GPRC5D. In words: FACS, HEK293T-mGPRC5D cells. For orientation: A flow cytometer gives signals particle by particle.
B1 displayed an EC50 of 12.3 nM and a Top of 55300.

In turn, B2 showed an EC50 of 15 nM and a Top of 76200.

B3 had an EC50 of 69.6 nM and a Top of 26000.

Molecule B4 returned an EC50 of 18.5 nM and a Top of 19200.

In the case of B5, the EC50 was 184 nM and the Top came to 45700.

In the case of B6, the EC50 was 14.2 nM and the Top was 77300.

The next assay concerns the target T2, cynomolgus monkey GPRC5D (cynomolgus monkey).
T2 construct: whole, on cells; HEK293T-cynoGPRC5D cells; also called cynoGPRC5D
As to the kind of experiment: FACS, HEK293T-cynoGPRC5D cells.
B1 gave an EC50 of 13.6 nM and a Top of 61600.

As for B2, the response was half-maximal at 9.74 nM (EC50) and the Top was determined as 42200.

As to B3, the EC50 was found to be 9.78 nM and the Top was 46800.

B4 came in with an EC50 of 8.25 nM and a Top of 34300.

In turn, B5 displayed an EC50 of 40.4 nM and a Top of 51300.

B6 showed an EC50 of 278 nM and a Top of 40500.

A further assay deals with T3, human GPRC5D (human, UniProt Q9NZD1 1-345).
T3 construct: whole, on cells; also called hGPRC5D; G-protein coupled receptor family C group 5 member D
T3 sequence (Q9NZD1 whole entry): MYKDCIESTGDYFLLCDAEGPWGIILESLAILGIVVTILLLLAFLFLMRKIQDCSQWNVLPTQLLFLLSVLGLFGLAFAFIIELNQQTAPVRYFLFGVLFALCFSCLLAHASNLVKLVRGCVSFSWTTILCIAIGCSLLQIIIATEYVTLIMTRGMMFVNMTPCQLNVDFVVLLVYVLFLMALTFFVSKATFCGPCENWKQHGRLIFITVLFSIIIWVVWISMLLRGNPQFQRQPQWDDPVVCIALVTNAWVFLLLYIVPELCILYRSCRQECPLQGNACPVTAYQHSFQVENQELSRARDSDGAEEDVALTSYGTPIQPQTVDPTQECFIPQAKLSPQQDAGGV
In words: FACS, CHOS-hGPRC5D cells.
In turn, B1 gave an EC50 of 8.51 nM and a Top of 2250.

In turn, B2 displayed an EC50 of 2.81 nM and a Top of 1950.

Molecule B3 had an EC50 of 1.39 nM and a Top of 2970.

In turn, B4 registered an EC50 of 1.97 nM and a Top of 2830.

B5 yielded an EC50 of 3.02 nM and a Top of 2910.

B6 showed a concentration for a half-maximal effect (EC50) of 2.41 nM and a Top of 2600.
